Measured values published in US5750106.

Biological target: gH glycoprotein of CMV (82,000 dalton component) (human cytomegalovirus (CMV), strain not stated)

B1: human monoclonal antibody SDZ MSL 109 (antibody, V domains shown)
VH: EEQVLESGGGLVKPGGSLRLSCAASGFTFSPYSVFWVRQAPGKGLEWVSSINSDSTYKYYADSVKGRFTISRDNAENSIFLQMNSLRAEDTAVYYCARDRSYYAFSSGSLSDYYYGLDVWGQG
VL: DIVMTQSPLSLSVTPGEPASISCRSSQSLLHTNGYNYLDWYVQKPGQSPQLLIYLASNRASGVPDRFSGSGSGTDFTLKISRVETEDVGVYYCMQALQIPRTFGQGTKVEIKR
How did the neutralizing concentration (micro-neutralization assay) turn out when B1 was run?
The neutralizing concentration (micro-neutralization assay) was 100 ng/mL.
